The results in this text go back to patent US20220031806A1 (Five Prime, published 2022).

The target of this assay is T1, mouse PD-L1 on mouse splenocytes (mouse, UniProt Q9EP73 19-290).
T1 construct: whole, on cells
Kind of assay: flow cytometry receptor occupancy on BALB/c and C57Bl/6 splenocytes, free PD-L1 by competing Ab clone. The procedure:
FIGS. 1A and 1B: Mouse splenocytes were evaluated for mCD80-Fc engagement and receptor occupancy. (A) Splenic immune cell subsets were identified as CD11b+ DCs (B220-Thy1.2−CD49b−CD11c+CD11b+), CD11b− DCs (B220− Thy1.2−CD49b-CD11c+CD11b−), Macrophages (B220−Thy1.2−CD49b−CD11c−CD11b+), NK cells (B220− Thy1.2−CD49b+), and T cells (CD3+CD4+ or CD3+CD8+) by flow cytometry. Representative flow cytometry plots depict the gating strategy. (B) Increasing concentrations of mCD80-Fc were incubated with mouse splenocytes (BALB/c strain top row; C57Bl/6 strain bottom row), and mCD80-Fc engagement was measured both via biotin-labeled anti-mIgG followed by streptavidin Alexa488 (“bound drug”) and by detection of CD80 ligands with competing Ab clones (“free” PD-L1 or CD28) enumerated as Antibody Binding Capacity (ABC) values. CTLA-4 was not detected on any immune cell evaluated (data not shown). L.D., limit of detection of ABC. Graphs depict mean±SD of n=3 animals/strain measured in technical duplicates. […]
Mouse splenocytes were prepared from adult BALB/c and […] mice by methods known to those of ordinary skill in the art. […] Data from the samples was acquired on a BD LSRII or BD LSRFortessa and analyzed using FlowJo, Excel, and Graphpad Prism.

T1 sequence (Q9EP73 19-290): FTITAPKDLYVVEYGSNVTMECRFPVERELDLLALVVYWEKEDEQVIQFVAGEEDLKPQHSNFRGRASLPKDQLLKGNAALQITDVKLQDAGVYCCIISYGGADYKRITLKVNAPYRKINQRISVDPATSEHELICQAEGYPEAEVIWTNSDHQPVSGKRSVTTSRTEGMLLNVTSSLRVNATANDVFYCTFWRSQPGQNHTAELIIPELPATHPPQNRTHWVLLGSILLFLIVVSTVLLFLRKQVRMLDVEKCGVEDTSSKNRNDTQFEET

B1: mouse surrogate fusion protein comprising the extracellular domain (ECD) of murine CD80 linked to the Fc domain of mouse IgG2a wild type (mCD80-Fc) (Fc fusion)
chain: VDEQLSKSVKDKVLLPCRYNSPHEDESEDRIYWQKHDKVVLSVIAGKLKVWPEYKNRTLYDNTTYSLIILGLVLSDRGTYSCVVQKKERGTYEVKHLALVKLSIKADFSTPNITESGNPSADTKRITCFASGGFPKPRFSWLENGRELPGINTTISQDPESELYTISSQLDFNTTRNHTIKCLIKYGDAHVSEDFTWEKPPEDPPDSKNEPRGPTIKPCPPCKCPAPNLLGGPSVFIFPPKIKDVLMISLSPIVTCVVVDVSEDDPDVQISWFVNNVEVHTAQTQTHREDYNSTLRVVSALPIQHQDWMSGKEFKCKVNNKDLPAPIERTISKPKGSVRAPQVYVLPPPEEEMTKKQVTLTCMVTDFMPEDIYVEWTNNGKTELNYKNTEPVLDSDGSYFMYSKLRVEKKNWVERNSYSCSVVHEGLHNHHTTKSFSRTPGK
notes: also called Murine CD80 ECD Fusion Molecules; Mouse CD80 ECD mouse Fc IgG2a
Take B1: the binding result is recorded as “no binding (tested: 0-1000 µg/mL)”.
